From the DeepSol protein solubility set

Test: soluble on expression in E. coli; label from the status in PepcDB or PDB records

Sequence | soluble on expression in E. coli
MQFPVLQESSQSALPQLTGILSSLIVTEEVKAAETDAIMAANTGKSEIVQVTYKLFGLIPFKSSAIQVMPQLKLLPGGQSIGVSLQAKGVMVVGQAAVQNQEGKLVYPAKEAGIEVGDIILKIDGREMNSDQDVANAIHRAGEKQGFSEILLNHNGQTMQKRVSTVYCPETNRHRVGLYVRNEAAGVGTLTFYDPTNHKYGALGHVINDVDTNQKIEILNGNVVASTIYAIEKGKRGHPGEKIGSFVNQSKFSGNIEKNTVSGIFGSLEGEIKNPYFQEPITVGWESEIKEGPAKIYTVLEGERIEEYDVQIERIMHNRTDSKNMVIKVTDPELVEKTGGIIQGMSGSPIVQDGKIIGAVTHVFVNDASRGYGVFIQNMLKDADIIDKKEVALEHHHHHH | not soluble
MQFSLVIPVYNAGMMWPEVIRSIKSQTIQPECVIIIDSSSTDNTVAYATEAGFEVYHIDKSTFDHGGTRSMALERVNTEFVIYMTQDAILQNDEAFFYLLSAFNNEEVGAVYGRQLPHHDANPLATHARLHSYGEVGYVTSMKDDFPQGFRKAFMSNSFSGYRVSTLRQIGGFPAKLILGEDSYVAARMLSTGVSVGYIPQALARHSHNYSVGEEFKRYFDIGVFHKTQEWMLASLGKVEGEGVKFALGQICYLLKSNYYHYIPFSIASSGAKYLGYKLGKNYHRLNRTLCKKLSMYKSYWNSSVLEHHHHHH | soluble
MQFTLEHAQDVLSGMPDPTFILSEDGIYIDVFGGTDKKAYHDGSNLIGKTLHSVLEKEQADWFIEQINRSLNQDSIVTIEYKMCADSIQGIDANSGPKGDLYYEGKICPLTINYQGRRVVLILTRNISNRHRVETLLRHQSQI | not soluble
MQFYNRQKELKLMELLDQGKPSFFVITGKRRVGKTELIKQFTRNRKALYLFVDSNKSINILMDEFDRLLKEKLDLPDYIKVDEPENFLKFITSYDRDLVIAIDEFQRFQKVYPSFITQLQRYWDMKPDNCRIFLIVSGSSIGMIRKIFIEEQAPLFKRADNILTIKPFTVLETFEMLDGMGIKNPEEKLNLYFLFGGTVYYYRLFEKYQCTGFDDALEKLIFSEFAPLKNEVREILIEEFGKEHSTYYEIISAISQGRCSMSEISDMTHVSSSSLSPYFYDLIDLLGVVEHRIPVMDNPEKSKRGRYFLKDNFFRFYGRFIYPMYSRYMAGNYSPMLEKVRKEWQSYTGKIFEDIVHELLVEKMISDYPELGSWWNRKGDEIDILGVDHRGRKSLVIEVKNKELAENEAREILELTLDKTKLVKGISGQKLKVGIVAQKVKGRKNLEDDGFLVWELEELIPLEHHHHHH | not soluble
MQGQKIPATVITGFLGSGKTTMIRNLLENANGKRIALIINEFGDLGVDGGILKRCGIETCREEDVIELNNGCICCTVADDFIPTMTKLLDREDRPDHIVIETSGLALPQPLVAAFNWPEIKTQVTVDGVVTVIDAAAVAEGRFADDHDKVDAQRAADESLDHESPLEELFEDQIHAADLIVLNKADLIDAAKLDSVKADVAERSSRRVNMVPASFGKLGADVLLGLGVGTEDDIVNRRSHHEAHHGDGHEHDHDEFESFVVEAGSVADPKAFAEKLKAVIAEHDILRLKGFVDVPGKPMRLVVQAVGPRIEHYFDRPWGKDETRSTRLVVIGLHDIDEAAIAQAVKDADLEHHHHHH | not soluble
MQIDVDPQEDPQNAPDVNYVVENPTLDLEQYAASYSGLMRIERLQFIADRCPPLRVEALKMALSFVQRTFNVDMYEEIHRKLSEATRELQNAPDAIPESGVEPPPLDTAWVEATRKKALLKLEKLDTDLKNYKGNSIKESIRRGHDDLGDHYLDCGDLSNALKCYSRARDYCTSAKHVINMCLNVIKVSVYLQNWSHVLSYVSKAESTPEIAEQRGERDSQTQAILTKLKCAAGLAELAARKYKQAAKCFLLASFDHCDFPELLSPSNVAVYGGLCALATFDRQELQRNVISSSSFKLFLELEPQVRDIIFKFYESKYASCLKMLDEMKDNLLLDMYLAPHVRTLYTQIRNRALIQYFSPYVSADMHKMAAAFNTTVAALEDELTQLILEGLINARIDSHSKILYARDVDQRSTTFEKSLLMGKEFQRRAKAMILRAAVLRNQIHVKVKSLGCEGMGGTHTASTEPSLSTAVSS | not soluble
MQIKILATSDMHGYIMPTSYSEKKMDLPFGTAKAATMLKKLRASAKGPVFQIENGDFIQGSPLSYYVRKAETHSVAAITKIINQMNYDVSILGNHEFNYGLDYLKETIASYQQPVLAANILGKDGQPYFGQPYVIIEKQGVKVAILGVTTQYIPHWEQPATVKDLTFKSVVETAAEYVPKLREEADLVVVAYHGGFEKDLETGEPTELLTGENEGYDLLEKVPGIDALVTGHQHREIATKLNGIPVIQPGFRGAFVGEITLEIEPMAKGYHVIGSDAAIHPVGNEQPDTEVLALTTALHDEVEEWLDQPVGNVEGDMTIQNPNAVRLKEHPYIEFINNVQMASSGTDISGTALFNNEGKGFNNQITMRDIITNYIYPNTLAVLRVTGQDLREALEQSATYFVLEKGQPIFNPKYVDPKPQYYNYDMYEGIEYTLDLRQPFGERVTKLNYHGKAVQAEDVLEIVTNQYRAVGGGNYQMFQPEKIIREIQIDMTELIAEYLKKHPIIQASTNDNFKVIW | not soluble
MQKIVIVANGAPYGSESLFNSLRLAIALREQESNLDLRLFLMSDAVTAGLRGQKPGEGYNIQQMLEILTAQNVPVKLCKTCTDGRGISTLPLIDGVEIGTLVELAQWTLSADKVLTF | soluble
MQLASRFGHVNQIRRDRPLTREELMQVVPSVFGEDKHTSRSENYTWIPTITVLESLQREGFQPFFACQTRVRDPGRRGYTKHMLRLRRDGEINGQHVPEIILLNSHDGTSSYQMLPGYFRFVCQNGCVCGQSLGEVRVPHRGNVVEKVIEGAYEVVGVFDRIEEKRDAMQSLVLPPLARQALAQAALTYRYGDEHQPVTTADILTPRRREDYGKDLWSAYQTIQENMLKGGISGRSAKGKRIHTRAIHSIDTDIKLNRALWVMTETLLENMR | not soluble
MQLDPPEPGFYDDPDLSYSIEKSITNWDEKRHEWFKSHPSFKPGSENRILMVTGSQSSPCKNPIGDHLLLLRCFKNKVDYARIHGHDIFYSNSLLHPKMNSYWAKLPVVKAAMLAHPFMD | not soluble
MQLEIKGKTHNVKFGTRFVAEMDKNHIAERQGFKFGAGLQSSVPFLIDHSVVTLAEVIYTGTITEPPRPSLNDIYDYIDEVEDIEKLFDDVLDELRQSNASKLFMAQVEKDLAEAKA | not soluble
MQLIPFEIPGILVGRFEKCSDNKREDERQRISLLLRRVFPHDTPQIGHLPSGKPILDSAHNISISHTGSYGAIYVTPSSLIPGIDIEMLSDRALRVAPRFMNEREYEWLMSADEARRRLLATIIWSAKETAYKIFNPSDASLKRFDVALPFELPSENTLFSFELIYSDSCTGDIHIPVQALCTGEFILTCACHCSHSR | not soluble
MQLLTEKDRPEEEKREETWRRLKRDIASSANTIHEIDTGKARGYNRALFVSSIFNKVSTFAGHGDVEIVQKAIDFISEYNAGIKKPVITPRHRFFQLAETASRMRDKLKETQELENREVTFEGGILVWNYQESRLQVFFNKIPEESKRRELKSSGFHWSPRNRAWQRQLNPNAVSAAKRILNL | not soluble
MQLYYLGPKGTFSYLACRQYFSENEATFQPKSNLFEVIKAVADDDTSIGVVPIENSIEGTINIVADALAQQDVFAHGEIRLDINFALYGNGTDSISDIKKVYSIAPAISQTTNYIHQHQFDYDYVDSTIQSLTKIENGVAAIAPLGSGEAYGFTPIDTHIEDYPHNVTRFLVIKNQQQFDQNATSLMFLITPMHDKPGLLASVLNTFALFNINLSWIESRPLKTQLGMYRFFVQADSAITTDIKKVIAILETLDFKVEMIGAFN | soluble
MQMNSEKFFKLFRVGETVLVEYSGTSRAELLLYYIVNNSKLPIVVDDILDTYYEFYTRLKVAGFDVAPLENVQVIKMGGTKDIGRVIGRLNISKYVISEQEYMEIVSQLKDYPVINPVLGLHKLILLGNTFENINVVKMVSNYVGREERIAFYFVNRNVIEKHSSPILDLLEEVVTSILEITDSGIIIKKSIKDEIAGKIVSPLLNF | soluble
MQMQVLTNTKFETVAFQWPAGFYSDGIHIGLRRHKKDFGWLFSKVPASAAGTYTTNQFQAAPTKLTKQMIDQGHQLQGLLLNSAIANSCTGEQGWQNALQEQAWLANKLNVAPNLIGVASTGLIGAQLPMDKIKNGLPQLTPTKSDAVTYAVLTTDQHPKTVCVQCELSGQLVTLTGFAKGSGMIHPKMATMLGFVTTDAQIDGPVLQDMLSTNVDQTFNQITVDGDTSTNDMVVTLANGLADNPSLQAGTTDYDIFNQALHYVLGQLAKQIAADGEGATKLVECNVVHAATTFDGQQIAKAIVGSNLVKAAIFGEDPNWGRIISTIGATDADIDVATVDIEMNGVLLVQQSLAVDFDMAAVQATLRDNQIMIDVDLHHGTASGQAWGCDLTYNYVKINASYHTLEHHHHHH | not soluble
MQNDNAKPISISKQLVYDAFLRVKANRGSAGIDKVTLEDYEKNLRGNLYKLWNRMSSGSYFPPSVKLVEIPKSTGGKRPLGIPTVSDRVAQMAVVMLITPSIEPCFHEDSYAYRPHRSAHDAVGKARERCWKYAWVLDMDISKFFDTIDHELLLKALKRHTQEKWVLMYIERWLKVPYEKSDGSQVDRALGVPQGSVIGPVLANLFLHYTFDKWMEKNFPRVPFERYADDTICHCHSLKQAEYMQAMIQQRFECCRLRLNEEKTKIVYCKSSRQKECYPNVTFDFLGFTFQPRESVDKYGNRFTGFLPAISRKSMKRINETMRSWHLNRHSNLTLEHLASDINPIVRGWMTYYGKFYPTRLKWFMQTLNGRLARWVMCKFERYRHRFYPAQEWLARIAEKEGLIFYHWKCGALPRFTNKEKVSSQLIMVK | soluble
MQNNSYGYAVSVRVGGKEHRHWERYDIDSDFLIPADSFDFVIGRLGPEAAIPDLSGESCEVVIDGQIVMTGIIGSQRHGKSKGSRELSLSGRDLAGFLVDCSAPQLNVKGMTVLDAAKKLAAPWPQIKAVVLKAENNPALGKIDIEPGETVWQALTHIANSVGLHPWLEPDGTLVVGGADYSSPPVATLCWSRTDSRCNIERMDIEWDTDNRFSEVTFLAQSHGRSGDSAKHDLKWVYKDPTMTLHRPKTVVVSDADNLAALQKQAKKQLADWRLEGFTLTITVGGHKTRDGVLWQPGLRVHVIDDEHGIDAVFFLMGRRFMLSRMDGTQTELRLKEDGIWTPDAYPK | not soluble
MQNRLRSALALVTGAGSGIGRAVSVRLAGEGATVAACDLDRAAAQETVRLLGGPGSKEGPPRGNHAAFQADVSEARAARCLLEQVQACFSRPPSVVVSCAGITQDEFLLHMSEDDWDKVIAVNLKGTFLVTQAAAQALVSNGCRGSIINISSIVGKVGNVGQTNYAASKAGVIGLTQTAARELGRHGIRCNSVLPGFIATPMTQKVPQKVVDKITEMIPMGHLGDPEDVADVVAFLASEDSGYITGTSVEVTGGLFMAENLYFQ | soluble
MQPHPETTPVTSCTIIDATDRSIRQTLGETSTLARLIWVDAGLASPPLCSGLARCGRCRVRITEAAPAPHEDDREFFSAEDISAGWRLACRHAPAHGMVVHVPLPVMPHRHASRPKHPGPFRLAVDLGTTSLQWSLLAPDGTVAAQGSETNPQMGAGSDVMSRIAMARSDKGRGRLRELVLQALRRIVADVEGTPATADAVPPAGSGDEPTTACGYESRVEELCVAGNTAMTAILADESVEGLASAPYRLEMRGGTALALPGLPPAWIPPLPAPFVGGDLSAGYLAVLTDHAPAFPFVLADLGTNGEFVLALSPERTLVTSVALGPALEGIGLTFGTVAQRGAITSFTLTPGGLVPYVLDGGEADGISGTGYISLVHALLRAGLLDVDGRFIQSPSSPLAARMARSIVSHRGEPCLPLARGLYLAARDIEEILKVKAAFSLAFERLLATAQMPSHALSGIHLAGALGQHALPADLEGLGFIPPGSGGRTRAVGNTSLRGAELLLTSPPLRDTLNTWREGCTVVDLTAAPDFSAAFLRHMHFHFLEHHHHHH | soluble
